Results taken from patent publication US20120207760A1.

How the values were obtained:
[1] = target: recombinant homotrimeric HA, A/California/4/09 H1N1 (Influenza A virus A/California/4/09 (H1N1)); experiment: trimeric HA microarray, transfection set 2
[2] = target: recombinant homotrimeric HA, A/Egypt/3300-NAMRU3/08 H5N1 (Influenza A virus A/Egypt/3300-NAMRU3/08 (H5N1)); experiment: trimeric HA microarray, transfection set 2
[3] = target: recombinant homotrimeric HA, A/Hong Kong/1073/99 H9N2 (Influenza A virus A/Hong Kong/1073/99 (H9N2)); experiment: trimeric HA microarray, transfection set 2
[4] = target: recombinant homotrimeric HA, A/Hong Kong/2108/03 H9N2 (Influenza A virus A/Hong Kong/2108/03 (H9N2)); experiment: trimeric HA microarray, transfection set 2
[5] = target: recombinant homotrimeric HA, A/Indonesia/5/05 H5N1 (Influenza A virus A/Indonesia/5/05 (H5N1)); experiment: trimeric HA microarray, transfection set 2
[6] = target: recombinant homotrimeric HA, A/Japan/305/57 H2N2 (Influenza A virus A/Japan/305/57 (H2N2)); experiment: trimeric HA microarray, transfection set 2
[7] = target: recombinant homotrimeric HA, A/Netherlands/219/03 H7N7 (Influenza A virus A/Netherlands/219/03 (H7N7)); experiment: trimeric HA microarray, transfection set 2
[8] = target: recombinant homotrimeric HA, A/Solomon Islands/3/06 H1N1 (Influenza A virus A/Solomon Islands/3/06 (H1N1)); experiment: trimeric HA microarray, transfection set 2
[9] = target: recombinant homotrimeric HA, A/South Carolina/1/18 H1N1 (Influenza A virus A/South Carolina/1/18 (H1N1)); experiment: trimeric HA microarray, transfection set 2
[10] = target: recombinant homotrimeric HA, A/Vietnam/1203/04 H5N1 (Influenza A virus A/Vietnam/1203/04 (H5N1)); experiment: trimeric HA microarray, transfection set 2
[11] = target: recombinant homotrimeric HA, A/Wisconsin/67/05 H3N2 (Influenza A virus A/Wisconsin/67/05 (H3N2)); experiment: trimeric HA microarray, transfection set 2
[12] = target: recombinant homotrimeric HA, A/chicken/Vietnam/NCVD-016/08 H5N1 (Influenza A virus A/chicken/Vietnam/NCVD-016/08 (H5N1)); experiment: trimeric HA microarray, transfection set 2
[13] = target: recombinant homotrimeric HA, A/common magpie/Hong Kong/5052/07 H5N1 (Influenza A virus A/common magpie/Hong Kong/5052/07 (H5N1)); experiment: trimeric HA microarray, transfection set 2
[14] = target: recombinant homotrimeric HA, A/duck/Yangzhou/02/05 H8N4 (Influenza A virus A/duck/Yangzhou/02/2005 (H8N4)); experiment: trimeric HA microarray, transfection set 2
[15] = target: recombinant homotrimeric HA, A/California/4/09 H1N1 (Influenza A virus A/California/4/09 (H1N1)); experiment: trimeric HA microarray, transfection set 4
[16] = target: recombinant homotrimeric HA, A/Indonesia/5/05 H5N1 (Influenza A virus A/Indonesia/5/05 (H5N1)); experiment: trimeric HA microarray, transfection set 4
[17] = target: recombinant homotrimeric HA, A/Japan/305/57 H2N2 (Influenza A virus A/Japan/305/57 (H2N2)); experiment: trimeric HA microarray, transfection set 4
[18] = target: recombinant homotrimeric HA, A/Solomon Islands/3/06 H1N1 (Influenza A virus A/Solomon Islands/3/06 (H1N1)); experiment: trimeric HA microarray, transfection set 4
[19] = target: recombinant homotrimeric HA, A/South Carolina/1/18 H1N1 (Influenza A virus A/South Carolina/1/18 (H1N1)); experiment: trimeric HA microarray, transfection set 4
[20] = target: recombinant homotrimeric HA, A/Vietnam/1203/04 H5N1 (Influenza A virus A/Vietnam/1203/04 (H5N1)); experiment: trimeric HA microarray, transfection set 4
[21] = target: recombinant homotrimeric HA, A/Wisconsin/67/05 H3N2 (Influenza A virus A/Wisconsin/67/05 (H3N2)); experiment: trimeric HA microarray, transfection set 4
[22] = target: recombinant homotrimeric HA, A/swine/Ontario/01911-2/99 H4N6 (Influenza A virus A/swine/Ontario/01911-2/99 (H4N6)); experiment: trimeric HA microarray, transfection set 4
[23] = target: recombinant soluble homotrimeric HA of A/Anhui/1/05 - H5N1 (Influenza A virus A/Anhui/1/2005 (H5N1)); experiment: micro-array; captured IgG, V5-tagged trimeric HA
[24] = target: recombinant soluble homotrimeric HA of A/Egypt/3300-NAMRU3/08 - H5N1 (Influenza A virus A/Egypt/3300-NAMRU3/2008 (H5N1)); experiment: micro-array; captured IgG, V5-tagged trimeric HA
[25] = target: recombinant soluble homotrimeric HA of A/Hong Kong/156/97 - H5N1 (Influenza A virus A/Hong Kong/156/97 (H5N1)); experiment: micro-array; captured IgG, V5-tagged trimeric HA
[26] = target: recombinant soluble homotrimeric HA of A/Netherlands/219/03 - H7N7 (Influenza A virus A/Netherlands/219/03 (H7N7)); experiment: micro-array; captured IgG, V5-tagged trimeric HA
[27] = target: recombinant soluble homotrimeric HA of A/chicken/Vietnam/NCVD-016/08 - H5N1 (Influenza A virus A/chicken/Vietnam/NCVD-016/2008 (H5N1)); experiment: micro-array; captured IgG, V5-tagged trimeric HA
[28] = target: recombinant soluble homotrimeric HA of A/duck/Yangzhou/02/2005 - H8N4 (Influenza A virus A/duck/Yangzhou/02/2005 (H8N4)); experiment: micro-array; captured IgG, V5-tagged trimeric HA
[29] = target: recombinant soluble homotrimeric HA of A/northern shoveler/California/HKWF115/2007 - H6N1 (Influenza A virus A/northern shoveler/California/HKWF115/2007 (H6N1)); experiment: micro-array; captured IgG, V5-tagged trimeric HA
[30] = target: hemagglutinin (HA) of influenza A/Japan/305/57 H2N2 (Influenza A virus A/Japan/305/1957 (H2N2)) (UniProt P03451); experiment: ELISA, inactivated whole virions coated; transfection supernatant set 4
[31] = target: hemagglutinin (HA) of influenza A/Solomon Islands/3/06 H1N1 (Influenza A virus A/Solomon Islands/3/2006 (H1N1)); experiment: as above
[32] = target: hemagglutinin (HA) of influenza A/Wisconsin/67/05 H3N2 (Influenza A virus A/Wisconsin/67/2005 (H3N2)); experiment: as above

TCN-202 (2N9) (antibody)
Trimeric HA Binding RLU [1]: 52 RLU | Trimeric HA Binding RLU [2]: 18 RLU | Trimeric HA Binding RLU [3]: 33 RLU | Trimeric HA Binding RLU [4]: 7 RLU | Trimeric HA Binding RLU [5]: 8 RLU | Trimeric HA Binding RLU [6]: 32 RLU | Trimeric HA Binding RLU [7]: 26 RLU | Trimeric HA Binding RLU [8]: 16 RLU | Trimeric HA Binding RLU [9]: 195 RLU | Trimeric HA Binding RLU [10]: 121 RLU | Trimeric HA Binding RLU [11]: 46 RLU | Trimeric HA Binding RLU [12]: 22 RLU | Trimeric HA Binding RLU [13]: 11 RLU | Trimeric HA Binding RLU [14]: 19 RLU | Trimeric HA Binding RLU [15]: 94 RLU | Trimeric HA Binding RLU [16]: 19 RLU | Trimeric HA Binding RLU [17]: 334 RLU | Trimeric HA Binding RLU [18]: 34 RLU | Trimeric HA Binding RLU [19]: 27 RLU | Trimeric HA Binding RLU [20]: 67 RLU | Trimeric HA Binding RLU [21]: 125 RLU | Trimeric HA Binding RLU [22]: 157 RLU | Trimeric HA Binding: RLU [23]: 10000 RLU | Trimeric HA Binding: RLU [24]: 13900 RLU | Trimeric HA Binding: RLU [25]: 945 RLU | Trimeric HA Binding: RLU [26]: 18000 RLU | Trimeric HA Binding: RLU [27]: 2570 RLU | Trimeric HA Binding: RLU [28]: 13800 RLU | Trimeric HA Binding: RLU [29]: 3040 RLU | OD450 [30]: 0.08 OD450 | OD450 [31]: 0.1 OD450 | OD450 [32]: 0.07 OD450
